The values below come from the DeepSol protein solubility set.

This series can be described thus: soluble on expression in E. coli; label from the status in PepcDB or PDB records.
For “MKEIKVIIAGPRGRMGHEAVLLMERTEHFNLVAAVDYKHGGEKISDLPGMPALHAPIYADLHTCLDEVEADVLLDLTTPEVGKQHVTLAVERGLRSVIGTTGFTEEELTRLTENAKEKAVGTIIAPNFAIGAVLMMKFSQMAAKYFQDVEVIELHHDQKLDAPSGTAVKTVELIRQNRESKQQGHPNEVEQLAGARGANVDGIHIHSVRLPGLIAHQEVMFGGDGQMLTVRHDSFNRASFMSGVKLSIETVMNLDHLVYGLENIID”, the “soluble on expression in E. coli” value is on record as “not soluble”.
On to “PRERVSRVHASSGTTGKPTVVGYTARDLDNWANLVARSIRAAGGKPGDIVHVSYGYGLFTGGLGAHYGAERLGCTVVPMSGGQTEKQVQLINDFRPDIIMVTPSYYCNILEEQRRQGMDPRQSSLRIGIFGAEPWTGQMRADIEAEGGIDAVDIYGLSEVMGPGVASECVETKDGPVV”, for which the “soluble on expression in E. coli” value is on record as “not soluble”.
Regarding “MIKDPRPLNDKAFIQQCIRQLCEFLTENGYAHNVSMKSLQAPSVKDFLKIFTFLYGFLCPSYELPDTKFEEEVPRIFKDLGYPFALSKSSMYTVGAPHTWPHIVAALVWLIDCIKIHTAMKESSPLFDDGQPWGEETEDGIMHNKLFLDYTIKCYESFMSGADSFDEMNAELQSKLKDLFNVDAFKLESLEAKNRALNEQIARLEQERSTANKANAERLKRLQKSADLYKDRLGLEIRKIYGEKLQFIFTNIDPKNPESPFMFSLHLNEARDYEVSDSAPHLEGLAEFQENVRKTNNFSAFLANVRKAFTATVYQ”, the “soluble on expression in E. coli” value is “soluble”.
With “MSLKSHKLLYQLKNKLTWLPILILAACQNNIIYHSYAPVPLDGWDKSDTLVYTLPNSIPAGNYEAEIGIRYQESYPYRDIWLEVSHNTKDTLTYVTDTLQLFLVDEAGNKTGNGLCGLYQCDLPYKASIPIRTEGSARTFRIVHIMTDNPLTGISDIGIRLRKPENEGHHHHHH”, the “soluble on expression in E. coli” value is recorded as “not soluble”.
To “AIANGTELRETLEDLIKEVVQASREALDTQGELNERNEAALRTLEAQWRQRLIEELHEQGSLRVVLCRTDLLVPGSGATGTTTTNRTDPLRYVYETLRQRDPRERRRSLPPERSSQSSELEDTGTDSGEALSSGDDDDEISQVAGQPEPETANYVLSQYERVLAPSTNKQRIWRVFLRDAMVHINGQDLLLNQLQCQFDW” belongs “soluble”; to “MSLKAAVLKNYGTLPEYQEFPEPKPKNYDELLVTPIASSVKRLDVIRAAGKHYTKFSELPAVMGMDGVAKLDNNSRVYAMGITGMMAEKALIDQRTMTVLPDGLDAGLAAALPNALIGSDLALLERGKIKTGDVVFINGATGLTGSLAVQMAKLRGAKRVIVTGRDPIKLQHLKDLGAYLTITTNQPDNSFVKELINAYNQSPFNLILDYLWGHPAELIIEALRRIRFLNSLKYISIGSLAGEGISVPSQLLRSKDLELIGSGIGSLDPNAVQVYMQKHLTEIFDYANQGKLSMELKSFPLDKISSAWISAPAVITIEGHHHHHH”, “not soluble”; to “MGSHHHHHHDITSLYKKAGSAAAVLEENLYFGGSFTMDMAADIASDHFISRRVDIGRITLNVREKGSGPLMLFFHGITSNSAVFEPLMIRLSDRFTTIAVDQRGHGLSDKPETGYEANDYADDIAGLIRTLARGHAILVGHSLGARNSVTAAAKYPDLVRSVVAIDFTPYIETEALDALEARVNAGSQLFEDIKAVEAYLAGRYPNIPADAIRIRAESGYQPVDGGLRPLASSAAMAQTARGLRSDLVPAYRDVTKPVLIVRGESSKLVSAAALAKTSRLRPDLPVVVVPGADHYVNEVSPEITLKAITNFIDA”, “soluble”.
Consider “MRNERAAKLVVIGGGTGLPVLLRGLKQHELDLTAIVTVADDGGSSGRLRDELHIPPPGDVRNVLAALSDVEPLIVELFQHRFQNGNGLSGHSLGNLILAALTSITGDFVKAIREMSKVLNVRGQVLPAANKSVVLHAEMEDGSIVSGESKIPSAGKKIKRVFLTPEDIEPLPETVDAIRRADLIVIGPGSLYTSILPNLLVPKIGQEVCKAKAKKVYICNIMTQAGETPHYTVSDHVEALHAHLGGPFLDAVIINSGAIPEAIRRRYEAERAEPVRDDSSGLSLQVIRDDIVTYEDGVIRHNTAKVAALLLGLLPHR”, for which the “soluble on expression in E. coli” value is listed as “not soluble”.
Then “MGSDKIHHHHHHMITTARQLKDLIRNMSKKKSADAQILMRNYMMERFLERISLSEYKNQFILKGGMLVAAMVGLDARATMDLDATIKGTNVSVEDVEMIISQIISIPLDDGVSFRVKRISEIMEEADYPGVRVSMETKFDGVITPLKIDISTGDVITPREIKYKFNLMLEDRTIEVWAYNLETVLAEKLETVVSRNVTNTRMRDFYDIYILQKLYGEQLQKQVLWTALVATAKKRGTLDLIEAEDIREIFDEIESSPVMETLWKTYQKNYSYAADISWHAIVKSICALYGSILENMYNT”, with “not soluble”; and “MGSDKIHHHHHHMTSTPHSPSEMFASIPGIFGFYPEESIVVLTLMHTKESCYQLGPVMRLDLKDLRYLSDIGDTLSAIEPDLVFGLIISGQKPEAIEDLRGLIEFVADCEIVPFDACWYTSAIESGGKYDAIWLNEAMTEAALEYQSWRKGRIPLIANTGITGEMIHAGHLPELSRKDIEKHYAQAEESEQWDEYLITERYAELFDDPSTSFRSAQECIDAFSQAVELMRTEKLITDAALTVAAFLKNKMSRDIIIECCVHNANTVKEALCYVSRHTKGFVRANALALYALCIVDSPWGNHITCVLQAAHNTLPFHHLTALVAEAYYRGLSGSIVDLVVSGSQEAQKHFGEATNVKSAV”, with “not soluble”; and “MSLSQVQVDRALAGLIVRAPLPAGWRAERMSALDVAAVAAVEQAAFAFPWSRGNFEDSLKSGHLGIVLRDGGNQVAGYLILMPVVDEMHLLNVTVAPAWQRQGLGRWLLRAAQALTLAHGFASLLLEVRPSNAGAIALYRRVGFAEIGRRKRYYPAENNTREDALVMRIACEAGGVEAAEGHHHHHH”, with “not soluble”.
To “MGSDKIHHHHHHMKIDMRNISKSFGTNKVLEKIDLELQSGQIHALMGENGAGKSTLMNILTGLFPASTGTIYIDGEERTFSNPQEAEEFGISFIHQEMNTWPEMTVLENLFLGREIKTTFGLLNQKLMRQKALETFKRLGVTIPLDIPIGNLSVGQQQMIEIAKSLLNQLSILVMDEPTAALTDRETENLFRVIRGLKQEGVGVVYISHRMEEIFKITDFVTVMRDGVIVDTKETSLTNSDELVKKMVGRKLEDYYPEKHSEIGPVAFEVSNLCGDNFEDVSFYVRKGEILGFSGLMGAGRTEVMRTIFGIDKKKSGKVKIDDQEITITTPSQAIKQGIGFLTENRKDEGLILDFNIKDNMTLPSTKDFSKHGFFDEKTSTTFVQQLINRLYIKSGRPDLEVGNLSGGNQQKVVLAKWIGIAPKVLILDEPTRGVDVGAKREIYQLMNELADRGVPIVMVSSDLPEILGVSDRIMVMHEGRISGELSRKEADQEKVMQLATGGK” belongs “not soluble”; to “MSLSFRFAFRPYQRRLRQPLRTARDAQITVRLGIWLRLETDTEVRWGEIAPWPSFGSETLAEAIAFCEAFPPDPEWEDLATAPDSLPACQFGFGCLRESNATDFLPTSAVLLPAGAAALTAIATASPATTYKWKIGLDLESELDLLPQLDRLLPSAAKLRLDANGGLTKAQADRLLQVLTAINERRSGRIEWLEQPLDPSQVDDLLQLVQDWPLVAIALDESVSQLSSLQFWQAQGWPGLYVLKPAIAGWPQTVRQFCQVHHLPVVVSSMFESPIGWRAVAAIAAQLGRADQAQGLGTTAWFTDDWESKTAAALWQHPEGHHHHHH”, “not soluble”; to “MGSDKIHHHHHHMKVFSERADKPHAYLFGEYTNPLGFDPVELALSEDGQAWQSIFDDPNLSNVYLVDFDWLPPVIADTYRTAGTRDGQQLANSRLDQRDIVLKFIAYCRGDADEKLTFQSLSNFLIRRHNYWVAFDNDGSRMYHVREKTITAEYYGDKMMMITVTLNNFTGVAQSIMPSAHINEMPNIGLGLPTDIVNYVFRTSEFDVNNIGELPVDPLVQGDYFDITLTGIGSPTIANTTTGDAITCTKSLTTGDTFKLIGVNPQINGQAAGINTDNGIIRLASGNNHFKITGCQDLNCTVNFYFKYLN”, “not soluble”.
Then “VQFQEYVFLQFLGLDKAPSPQKFQPVPYILKKIFQDREAAATTGVSRDLCYVKELGVRGNVLRFLPDQGFFLYPKKISQASSCLQKLLYFNLSAIKEREQLTLAQLGLDLGPNSYYNLGPELELALFLVQEPHVWGQTTPKPGKMFVLRSVPWPQGAVHFNLLDVAKDWNDNPRKNFGLFLEILVKEDRDSGVNFQPEDTCARLRCSLHASLLVVTLNPDQCHPSRKRRAAIPVPKLSCKNLCHRHQLFINFRDLGWHKWIIAPKGFMANYCHGECPFSLTISLNSSNYAFMQALMHAVDPEIPQAVCIPTKLSPISMLYQDNNDNVILRHYEDMVVDECGCG”, with “soluble”; and “MGSDKIHHHHHHMWYKNNSFRFTRRFFMRVRVSAVFEQAGEILCMKYIYGGKEVFALPGGGVDKDIPLQEAIVNEWKEELGIKVDIGDIILIGEAPAGKRHPQTLHVVFEAREIRGTPKVRSDATHSLDVAWVPLEKLSSLPLYPDVGKQLSASFSEEPRRSVAFISNCMERGYW”, with “not soluble”; and “MGSDKIHHHHHHMLSRTADHLFWMSRYTERAENTARMLNVSYETSLLPQSADVAQESWLGLLSISELIPAYTARHGEVTREGVLEFMVRDGDNPSSILSCLRAARENARAVRGALTTEIWETQNQTWLELHRQLQGRDFERDPGAFFEWVKYRSHLSRGVTLGTMLQDEAFHFLRLGTFLERADNTARLLDVKFHAVQSDFHGSAMRERGRAAPQEFDFYHWSAILRSVSAFEVYRKVYRDVITPERVADLLMLRADMPRSLHASLREVADNLAVVANDQSAETQRKAGRLLADLRYGRIDEILATGLHAYLTQFLDRVNDLGAGISRDFLVPVPA”, with “not soluble”.
With “MVIKFSSNTTNPPTMIYMGVDKVENEDLIKYGWPEDVWFHVDKLSSAHVYLRLHSGMTIDSIPEALLIDCCQLVKQNSIEGCKLNNVAIVYTMWSNLKKTGDMAVGQVGFHSHKQVKHTVVPTKINEIVNRLEKTRRKDDIDYKEERDARDAKERQKLKKLEQERKDREKKEMLAQNEKKRIEGYEDVDWDAGATTRNDVDPGNLSDDFM”, the “soluble on expression in E. coli” value is given as “not soluble”.
For “MATANNPPSGLLDPTLCEDRIFYNILEIEPRFLTSDSVFGTFQQSLTSHMRKLLGTWMFSVCQEYNLEPNVVALALNLLDRLLLIKQVSKEHFQKTGSACLLVASKLRSLTPISTSSLCYAAADSFSRQELIDQEKELLEKLAWRTEAVLATDVTSFLLLKLVGGSQHLDFWHHEVNTLITKALVDPLTGSLPASIISAAGCALLVPANVIPQDTHSGGVVPQLASILGCDVSVLQAAVEQILTSVSDFDLRILDSY”, the “soluble on expression in E. coli” value is listed as “soluble”.
To “STQDADRTLKRLQLQMDNLESRVALECKEAFAELQTDINELTNHMDGVQIPFLDYRTYAVRVLFPGIEAHPVLKELDTPPNVEKALRLFGQLLHSRAFLLTFIHTLEAQSSFSMRDRGTVASLTMVALQSRLDYATGLLKQLLADLIEKNLESKNHPKLLLRRTESVAEKMLTNWFTFLLHKFLKECAGEPLFLLYCAIKQQMEKGPIDAITGEARYSLSEDKLIRQQIDYKTLTLHCVCPESEGSAQVPVKVLNCDSITQAKDKLLDTVYKGIPYSQRPKAEDMDLEWRQGRMARIILQDEDITTKIECDWKRVNSLAHYQVTDGSLVALVPKQVSAYNMANSFTFTRSLSRYESLLRAASSPDSLRSRAPMLTPDQEAGTKLWHLVRNHDHTDHREGDRGSKMVSEIYLTRLLATKGTLQKFVDDLFETVFSTAHRGSALPLAIKYMFDFLDEQADQRQISDPDVRHTWKSNCLPLRFWVNVIKNPQFVFDIHKNSITDACLSVVAQTFMDSCSTSEHRLGKDSPSNKLLYAKDIPNYKSWVERYYRDIAKMASISDQDMDAYLVEQSRLHANDFNVLSALSELYFYVTKYRQEILTSLDRDASCRKHKLRQKLEQIITLVSSSS” belongs “soluble”.
